From patent publication US12252534 (Scripps Research, dated 2025)

Key:
[1] = target: T1, cynomolgus CD3 on cynomolgus T cells (HSC-F) (cynomolgus monkey, UniProt Q95LI5 22-198; Q95LI8 22-171; Q95LI7 23-181); assay: flow cytometry titration on HSC-F cells
T1 construct: whole, on cells; also called cyCD3+; cell surface CD3 on cynomolgus (HSC-F) T cells
From the text: (§1) Flow cytometry was used to assess for potential differential binding to cell surface CD3 on human (Jurkat) and cynomolgus T cells as a result of the "de-immunization" process. […] After several washes, samples were acquired on a BD LSRII or BD Accuri C6 and analyzed using FlowJo software.

[2] = target: T2, human CD3 on human T cells (Jurkat) (human, UniProt P07766 23-207; P04234 22-171; P09693 23-182); assay: flow cytometry titration on Jurkat cells
T2 construct: whole, on cells; also called huCD3+; cell surface CD3 on human (Jurkat) T cells
From the text: as §1

[3] = target: T3, recombinant cynomolgus monkey CD3 delta/epsilon complex (cy.CD3 d/e-Fc) (cynomolgus monkey, UniProt Q95LI8 22-105; Q95LI5 22-117); assay: Octet (BLI), cy.CD3 d/e-Fc captured on Fc sensor, conjugate as analyte; unit inferred, M implied
T3 construct: also called cynoCD3; not shown: Fc portion
Protocol: (§2) Analytes were serially diluted 1.2× from 6 μg/mL to 1 μg/mL in the 1×PBS. 100 mM glycine (pH 2.87) regeneration solution, and 1×PBS for baseline stabilization was also prepared. Biosensor, ligand and analytes pair is following: (1) CH-1-antibodies-recombinant human or cynomolgus monkey CD3 delta/epsilon complex, (2) Fc-recombinant human or cynomolgus monkey CD3 delta/epsilon complex-antibodies (3) CH-1-antibodies-recombinant human or cynomolgus monkey PSMA; and (4) Ni-NTA-recombinant human or cynomolgus monkey PSMA-antibodies. Prior to the binding measurements, the sensor tips were pre-hydrated in 1×PBS for 30 min, followed by 1 cycles of pre-conditioning with 60-sec dips in glycine (pH 2.87). The sensor tips were then transferred to the ligand-containing wells for a 180-sec loading step. After a 120-sec baseline dip in 1×PBS, the binding kinetics were measured by dipping the ligand-coated sensors into the wells containing corresponding analyte at varying concentrations. The binding interactions were monitored over a 180-sec association period and followed by a 7.5 to 15-min dissociation period in new wells containing fresh 1×PBS.

[4] = target: T4, recombinant human CD3 delta/epsilon complex (hu.CD3 d/e-Fc) (human, UniProt P04234 22-105; P07766 23-126); assay: Octet (BLI), hu.CD3de-Fc captured on Fc sensor, conjugate as analyte; unit inferred, M implied
T4 construct: not shown: Fc portion
Protocol: as §2

[5] = target: T3, recombinant cynomolgus monkey CD3 …; assay: Octet (BLI), conjugate captured on CH1 sensor, cy.CD3 d/e-Fc as analyte; unit inferred, M implied
Protocol: as §2

[6] = target: T4, recombinant human CD3 delta/epsilon …; assay: Octet (BLI), conjugate captured on CH1 sensor, hu.CD3 d/e-Fc as analyte; unit inferred, M implied
Protocol: as §2

[7] = target: T1, cynomolgus CD3 on cynomolgus T cells …; assay: flow cytometry on HSC-F (cyCD3+) cells, detected with PE-conjugated anti-human kappa secondary antibody; control is the secondary antibody alone
From the text: (§3) Flow cytometry was used to test binding of conjugates to cell surface CD3 on human (Jurkat) and cynomolgus (HSC-F) T cells or PSMA on C4-2 cells.

[8] = target: T2, human CD3 on human T cells (Jurkat); assay: flow cytometry on Jurkat (huCD3+) cells, detected with PE-conjugated anti-human kappa secondary antibody; control is the secondary antibody alone
From the text: as §3

T2 sequence (P07766 23-207, chain 1 of 3): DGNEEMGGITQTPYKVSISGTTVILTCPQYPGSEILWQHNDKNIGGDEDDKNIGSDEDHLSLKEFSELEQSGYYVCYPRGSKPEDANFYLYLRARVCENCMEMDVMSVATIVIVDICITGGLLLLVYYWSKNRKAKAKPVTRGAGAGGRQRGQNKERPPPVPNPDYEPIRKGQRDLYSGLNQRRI
T2 sequence (P04234 22-171, chain 2 of 3): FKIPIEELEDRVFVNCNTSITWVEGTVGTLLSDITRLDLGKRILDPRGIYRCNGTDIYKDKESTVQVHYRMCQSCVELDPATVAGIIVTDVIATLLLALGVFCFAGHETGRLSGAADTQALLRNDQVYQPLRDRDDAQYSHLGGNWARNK
T2 sequence (P09693 23-182, chain 3 of 3): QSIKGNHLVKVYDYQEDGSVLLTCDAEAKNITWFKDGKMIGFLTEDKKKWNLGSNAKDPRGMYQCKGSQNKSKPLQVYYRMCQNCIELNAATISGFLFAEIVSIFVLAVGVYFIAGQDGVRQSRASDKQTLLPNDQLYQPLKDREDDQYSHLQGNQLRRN
T1 sequence (Q95LI5 22-198, chain 1 of 3): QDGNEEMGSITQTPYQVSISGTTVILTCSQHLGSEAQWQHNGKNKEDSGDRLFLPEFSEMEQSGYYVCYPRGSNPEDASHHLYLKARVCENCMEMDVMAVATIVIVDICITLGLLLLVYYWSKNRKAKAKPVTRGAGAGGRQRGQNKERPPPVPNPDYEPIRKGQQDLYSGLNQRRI
T1 sequence (Q95LI8 22-171, chain 2 of 3): as the sequence (P04234 22-171, chain 2 of 3) above, with I5V, N15K, I20V, S32T, D33N, I34N, T64A, S74N, V83L, H141R counted along it
T1 sequence (Q95LI7 23-181, chain 3 of 3): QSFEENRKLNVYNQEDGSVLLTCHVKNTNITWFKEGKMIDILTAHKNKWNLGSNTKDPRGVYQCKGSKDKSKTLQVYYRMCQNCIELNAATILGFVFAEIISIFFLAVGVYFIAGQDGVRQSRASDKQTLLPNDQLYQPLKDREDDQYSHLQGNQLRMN
T4 sequence (P04234 22-105, stated change not applied, chain 1 of 2): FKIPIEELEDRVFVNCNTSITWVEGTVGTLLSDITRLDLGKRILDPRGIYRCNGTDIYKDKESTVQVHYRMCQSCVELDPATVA
T4 sequence (P07766 23-126, stated change not applied, chain 2 of 2): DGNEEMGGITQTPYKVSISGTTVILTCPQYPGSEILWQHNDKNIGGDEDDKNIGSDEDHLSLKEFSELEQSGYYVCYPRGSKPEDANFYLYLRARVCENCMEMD
T3 sequence (Q95LI8 22-105, stated change not applied, chain 1 of 2): as the sequence (P04234 22-105, stated change not applied, chain 1 of 2) above, with I5V, N15K, I20V, S32T, D33N, I34N, T64A, S74N, V83L counted along it
T3 sequence (Q95LI5 22-117, stated change not applied, chain 2 of 2): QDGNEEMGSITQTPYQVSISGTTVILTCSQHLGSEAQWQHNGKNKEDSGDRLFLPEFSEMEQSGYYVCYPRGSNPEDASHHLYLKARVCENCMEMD

Binder | IC50 [1] [nM] | IC50 [2] [nM] | Kd [4] [nM] | Kd [6] [nM] | binding result [7] | further results
huL5H2 (SEQ ID NOS: 40, 42), pAcF double mutant Fab, unconjugated (Fab, V domains shown, p-acetylphenylalanine (pAcF) in place of S205 (S205TAG); p-acetylphenylalanine (pAcF) in place of K141 (K141TAG), Expressed in E. coli with an orthogonal tRNA/synthetase; also called VL5 kappa 205TAG + H2 141TAG) VH: EVQLVESGGGLVQPGGSLKLSCAASGFTFNTYAMNWVRQASGKGLEWVARIRSKYNNYATYYADSVKDRFTISRDDSKNTLYLQMNSLKTEDTAVYYCVRHGNFGNSYVSWFAYWGQGTLVTVSS VL: QAVVTQEPSLTVSPGGTVTLTCRSSTGAVTTSNYANWVQQKPDHLFRGLIGGTNKRAPGTPARFSGSLLGDKAALTISGAQPEDEAEYYCALWYSNLWVFGGGTKLTVLK | 3.8 | 5.9 | – | – | – | –
huL5H2_DI-1×DUPA (SEQ ID NOS: 39, 44) (Fab, V domains shown, pAcF at position 141 conjugated by oxime to a DUPA-linker, De-immunized Fab with a single DUPA on the heavy chain; also called L5H2-DI-1X-DUPA; L5H2_DI-1xDUPA) VH: EVQLVESGGGLVQPGGSLRLSCAASGFTFNTYAMNWVRQAPGKGLEWVARIRSKYNNYATYYADSVKDRFTISRDDSKNTLYLQMNSLRAEDTAVYYCVRHGNFGNSYVSWFAYWGQGTLVTVSS VL: QAVVTQEPSLTVSPGGTVTLTCRSSTGAVTTSNYANWVQQKPDHLFRGLIGGTNKRAPGTPARFSGSLLGDKAALTISGAQPEDEAEYYCALWYSNLWVFGGGTKLTVLK | – | – | 21.2 | 4.83 | – | Kd [3]: 11.3 nM; Kd [5]: 3.29 nM
huL5H2_DI-2×DUPA (SEQ ID NOS: 40, 44) (Fab, V domains shown, pAcF at position 205 conjugated by oxime to p-TriA (DUPA-linker); pAcF at position 141 conjugated by oxime to p-TriA (DUPA-linker), De-immunized Fab with one DUPA on the heavy chain and one on the light chain; also called L5H2-DI-2X-DUPA; L5H2_DI-2xDUPA) VH: EVQLVESGGGLVQPGGSLRLSCAASGFTFNTYAMNWVRQAPGKGLEWVARIRSKYNNYATYYADSVKDRFTISRDDSKNTLYLQMNSLRAEDTAVYYCVRHGNFGNSYVSWFAYWGQGTLVTVSS VL: QAVVTQEPSLTVSPGGTVTLTCRSSTGAVTTSNYANWVQQKPDHLFRGLIGGTNKRAPGTPARFSGSLLGDKAALTISGAQPEDEAEYYCALWYSNLWVFGGGTKLTVLK | – | – | 11 | 5.13 | – | –
DI-huL5H2 (SEQ ID NOS: 40, 44), de-immunized pAcF mutant Fab, unconjugated (Fab, V domains shown, p-acetylphenylalanine (pAcF) at light chain position 205 (205TAG); p-acetylphenylalanine (pAcF) at heavy chain position 141 (141TAG), The heavy chain carries the de-immunizing mutations K19R, S41P, K89R and T90A relative to huL5H2; also called huL5H2_DI) VH: EVQLVESGGGLVQPGGSLRLSCAASGFTFNTYAMNWVRQAPGKGLEWVARIRSKYNNYATYYADSVKDRFTISRDDSKNTLYLQMNSLRAEDTAVYYCVRHGNFGNSYVSWFAYWGQGTLVTVSS VL: QAVVTQEPSLTVSPGGTVTLTCRSSTGAVTTSNYANWVQQKPDHLFRGLIGGTNKRAPGTPARFSGSLLGDKAALTISGAQPEDEAEYYCALWYSNLWVFGGGTKLTVLK | 3.4 | 4.6 | – | – | – | –
UCHT-1 (SEQ ID NOS: 84, 85) anti-CD3 Fab (Fab, V domains shown, The unconjugated UCHT-1 that was tested may carry pAcF residues; also called clone UCHT-1) VH: EVQLVESGGGLVQPGGSLRLSCAASGYSFTGYTMNWVRQAPGKGLEWVALINPYKGVSTYNQKFKDRFTISVDKSKNTAYLQMNSLRAEDTAVYYCARSGYYGDSDWYFDVWGQGTLVTVSS VL: DIQMTQSPSSLSASVGDRVTITCRASQDIRNYLNWYQQKPGKAPKLLIYYTSRLESGVPSRFSGSGSGTDYTLTISSLQPEDFATYYCQQGNTLPWTFGQGTKVEIKR | – | – | – | – | no binding | binding result [8]: binds
UCHT-1-p-TriA (2×DUPA) (Fab, V domains shown, one pAcF conjugated to p-TriA (DUPA-linker); position in UCHT-1 not stated) VH: EVQLVESGGGLVQPGGSLRLSCAASGYSFTGYTMNWVRQAPGKGLEWVALINPYKGVSTYNQKFKDRFTISVDKSKNTAYLQMNSLRAEDTAVYYCARSGYYGDSDWYFDVWGQGTLVTVSS VL: DIQMTQSPSSLSASVGDRVTITCRASQDIRNYLNWYQQKPGKAPKLLIYYTSRLESGVPSRFSGSGSGTDYTLTISSLQPEDFATYYCQQGNTLPWTFGQGTKVEIKR | – | – | – | – | no binding | –
